Assay results as given in US20240132593A1 (KINETA, published 2024).

B1: Spiked Peptide 20 (NFSITMRNLTLLDSG) (peptide)
peptide: NFSITMRNLTLLDSG
notes: synthetic overlapping peptide from human VISTA
B2: Spiked Peptide 11 (CSERRPIRNLTFQDL) (peptide)
peptide: CSERRPIRNLTFQDL
notes: as for B1
B3: Spiked Peptide 2 (PYSLYVCPEGQNVTL) (peptide)
peptide: PYSLYVCPEGQNVTL
notes: as for B1
B4: Spiked Peptide 17 (LAQRHGLESASDHHG) (peptide)
peptide: LAQRHGLESASDHHG
notes: as for B1
B5: Spiked Peptide 14 (HLHHGGHQAANTSHD) (peptide)
peptide: HLHHGGHQAANTSHD
notes: as for B1
B6: Spiked Peptide 9 (YRSSRGEVQTCSERR) (peptide)
peptide: YRSSRGEVQTCSERR
notes: as for B1
B7: Spiked Peptide 15 (GHQAANTSHDLAQRH) (peptide)
peptide: GHQAANTSHDLAQRH
notes: as for B1
B8: Spiked Peptide 13 (TFQDLHLHHGGHQAA) (peptide)
peptide: TFQDLHLHHGGHQAA
notes: as for B1
B9: Spiked Peptide 28 (VQTGKDAPSNCVVYP) (peptide)
peptide: VQTGKDAPSNCVVYP
notes: as for B1
B10: Spiked Peptide 19 (SDHHGNFSITMRNLT) (peptide)
peptide: SDHHGNFSITMRNLT
notes: as for B1
B11: Spiked Peptide 22 (LLDSGLYCCLVVEIR) (peptide)
peptide: LLDSGLYCCLVVEIR
notes: as for B1
B12: Spiked Peptide 10 (GEVQTCSERRPIRNL) (peptide)
peptide: GEVQTCSERRPIRNL
notes: as for B1
B13: Spiked Peptide 6 (GPVDKGHDVTFYKTW) (peptide)
peptide: GPVDKGHDVTFYKTW
notes: as for B1
B14: Spiked Peptide 1 (FKVATPYSLYVCPEG) (peptide)
peptide: FKVATPYSLYVCPEG
notes: as for B1
B15: Spiked Peptide 24 (VVEIRHHHSEHRVHG) (peptide)
peptide: VVEIRHHHSEHRVHG
notes: as for B1
B16: Spiked Peptide 29 (DAPSNCVVYPSSSQE) (peptide)
peptide: DAPSNCVVYPSSSQE
notes: as for B1
B17: Spiked Peptide 23 (LYCCLVVEIRHHHSE) (peptide)
peptide: LYCCLVVEIRHHHSE
notes: as for B1
B18: Spiked Peptide 27 (AMELQVQTGKDAPSN) (peptide)
peptide: AMELQVQTGKDAPSN
notes: as for B1
B19: Spiked Peptide 26 (HRVHGAMELQVQTGK) (peptide)
peptide: HRVHGAMELQVQTGK
notes: as for B1
B20: Spiked Peptide 12 (PIRNLTFQDLHLHHG) (peptide)
peptide: PIRNLTFQDLHLHHG
notes: as for B1
B21: Spiked Peptide 21 (MRNLTLLDSGLYCCL) (peptide)
peptide: MRNLTLLDSGLYCCL
notes: as for B1
B22: Spiked Peptide 16 (NTSHDLAQRHGLESA) (peptide)
peptide: NTSHDLAQRHGLESA
notes: as for B1
B23: Spiked Peptide 8 (FYKTWYRSSRGEVQT) (peptide)
peptide: FYKTWYRSSRGEVQT
notes: as for B1
B24: Spiked Peptide 7 (GHDVTFYKTWYRSSR) (peptide)
peptide: GHDVTFYKTWYRSSR
notes: as for B1
B25: Spiked Peptide 4 (QNVTLTCRLLGPVDK) (peptide)
peptide: QNVTLTCRLLGPVDK
notes: as for B1
B26: Spiked Peptide 5 (TCRLLGPVDKGHDVT) (peptide)
peptide: TCRLLGPVDKGHDVT
notes: as for B1
B27: Spiked Peptide 3 (VCPEGQNVTLTCRLL) (peptide)
peptide: VCPEGQNVTLTCRLL
notes: as for B1
B28: Spiked Peptide 18 (GLESASDHHGNFSIT) (peptide)
peptide: GLESASDHHGNFSIT
notes: as for B1
B29: Spiked Peptide 25 (HHHSEHRVHGAMELQ) (peptide)
peptide: HHHSEHRVHGAMELQ
notes: as for B1

What was measured:
Antibody No. 245.1 [1] = experiment: peptide blocking ELISA on plate-bound VISTA, peptide 2 ug/mL
Experimental: (§1) ELISA was used to measure the ability of sequential overlapping 15-mer synthetic peptides from human VISTA to block binding of an antibody to full length VISTA-ECD immobilized on a microtiter plate. Nickel coated ELISA plates were blocked with BSA and bound with 0.5 μg/mL VISTA protein (Human recombinant, produced in HEK 293 cells, SinoBiologics) for 1 h at room temperature. Anti-VISTA antibodies were diluted to 2-fold their EC₅₀ concentrations and pre-incubated at a 1:1 ratio with either 2 μg/mL or 20 μg/mL peptide solution in 0.5% BSA in PBST for 30 min at room temperature. Peptide-bound antibody solutions (50 μL) were added to each microtiter well and incubated for 1 h at room temperature, after which the ELISA plate was washed and processed as described above for standard ELISAs. Data are expressed as a percent reduction in ELISA signal obtained without preincubation with peptide solution.

Antibody No. 465.1 [2] = target: T1, Antibody No. 465.1; experiment: as above
T1 construct: also called Ab No. 465.1
Experimental: as §1

VSTB174 [3] = experiment: as above
Experimental: as §1

Antibody No. 245.1 [4] = experiment: peptide blocking ELISA on plate-bound VISTA, peptide 20 ug/mL
Experimental: as §1

Antibody No. 465.1 [5] = target: T1, Antibody No. 465.1; experiment: as above
Experimental: as §1

VSTB174 [6] = experiment: as above
Experimental: as §1

Chain of VSTB174 (VH, as listed by the source, chain 1 of 2): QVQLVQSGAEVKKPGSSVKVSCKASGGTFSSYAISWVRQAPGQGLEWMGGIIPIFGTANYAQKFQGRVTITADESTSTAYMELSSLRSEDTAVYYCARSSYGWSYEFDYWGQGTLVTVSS
Chain of VSTB174 (VL, as listed by the source, chain 2 of 2): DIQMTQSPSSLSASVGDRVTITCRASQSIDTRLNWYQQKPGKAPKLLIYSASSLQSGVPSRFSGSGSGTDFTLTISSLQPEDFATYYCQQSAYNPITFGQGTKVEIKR

Binder | percent reduction in ELISA signal (Antibody No. 245.1 [1]) [%] | percent reduction in ELISA signal (Antibody No. 465.1 [2]) [%] | percent reduction in ELISA signal (VSTB174 [3]) [%] | percent reduction in ELISA signal (Antibody No. 245.1 [4]) [%] | percent reduction in ELISA signal (Antibody No. 465.1 [5]) [%] | percent reduction in ELISA signal (VSTB174 [6]) [%]
B1 | 23 | 0 | 20 | 28 | 24 | 42
B2 | 4 | 0 | 10 | 6 | 8 | 14
B3 | 1 | 0 | 8 | 9 | 1 | 3
B4 | 13 | 8 | 21 | 26 | 7 | 46
B5 | 1 | 11 | 20 | 66 | 43 | 79
B6 | 4 | 3 | 0 | 0 | 10 | 0
B7 | 11 | 0 | 9 | 0 | 3 | 35
B8 | 3 | 15 | 26 | 57 | 36 | 81
B9 | 0 | 0 | 0 | 5 | 0 | 5
B10 | 0 | 3 | 10 | 9 | 4 | 28
B11 | 0 | 0 | 18 | 34 | 41 | 75
B12 | 0 | 0 | 2 | 0 | 4 | 0
B13 | 3 | 0 | 10 | 9 | 4 | 25
B14 | 2 | 5 | 1 | 0 | 7 | 18
B15 | 8 | 16 | 48 | 41 | 43 | 82
B16 | 0 | 0 | 8 | 0 | 14 | 10
B17 | 9 | 2 | 31 | 37 | 36 | 67
B18 | 0 | 0 | 13 | 0 | 3 | 24
B19 | 0 | 0 | 17 | 0 | 2 | 25
B20 | 20 | 9 | 52 | 62 | 55 | 89
B21 | 10 | 0 | 15 | 4 | 22 | 38
B22 | 0 | 0 | 10 | 14 | 0 | 28
B23 | 8 | 0 | 22 | 1 | 0 | 34
B24 | 12 | 0 | 8 | 26 | 26 | 30
B25 | 9 | 0 | 5 | 25 | 16 | 32
B26 | 7 | 0 | 14 | 9 | 12 | 14
B27 | 0 | 2 | 0 | 3 | 7 | 37
B28 | 3 | 0 | 17 | 3 | 4 | 32
B29 | 10 | 10 | 45 | 52 | 67 | 83
